Here are results for six molecules from paper PMC4136673.

Ends that are not written are not given here. * marks the point of attachment. Pyruvoyl = CC(=O)C(=O)*

To fix the notation:
T1: His6-ElxO (Staphylococcus epidermidis 15X154) (UniProt I6ZQW6)
T1 sequence: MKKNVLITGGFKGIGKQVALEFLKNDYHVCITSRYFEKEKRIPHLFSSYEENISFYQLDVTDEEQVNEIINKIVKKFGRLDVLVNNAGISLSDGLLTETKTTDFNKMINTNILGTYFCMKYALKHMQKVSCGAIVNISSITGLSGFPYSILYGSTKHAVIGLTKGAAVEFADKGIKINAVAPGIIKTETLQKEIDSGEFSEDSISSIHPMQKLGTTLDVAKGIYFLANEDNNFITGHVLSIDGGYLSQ

For this test, the target named is T1, His6-ElxO (Staphylococcus epidermidis 15X154).
In the case of Pyr-AAI (peptide), the kcat/Km of reduction by His6-ElxO with NADPH (absorbance at 340 nm) was found to be 0.06 M⁻¹ s⁻¹.
The figure for Pyr-AA (peptide) is under 0.03 M⁻¹ s⁻¹; for Pyr-A (peptide) it is under 0.03 M⁻¹ s⁻¹.
For Pyr-AAIVKBBIKAAKK (peptide), the kcat/Km of reduction by His6-ElxO with NADPH (absorbance at 340 nm) is 14.2 M⁻¹ s⁻¹.
Pyruvoyl-AAIV [Pyr-AAIV]: the kcat/Km of reduction by His6-ElxO with NADPH (absorbance at 340 nm) is 1.13 M⁻¹ s⁻¹.
The figure for Pyruvoyl-AAIVK [Pyr-AAIVK] is 2.43 M⁻¹ s⁻¹.
